PMC10511788, “Solution structure of the HOIL-1L NZF domain reveals a conformational switch regulating linear ubiquitin affinity” (The Journal of Biological Chemistry, 2023)

Target: T1, M1-linked di-ubiquitin (UniProt P0CG48 1-76; P0CG48 1-76)
T1 construct: ubiquitin, distal (N-terminal) moiety, M1-G76, its G76 joined by a peptide bond to M1 of the next moiety; ubiquitin, proximal (C-terminal) moiety, M1-G76, with the free C-terminal carboxylate; Two ubiquitin units head to tail on one chain; also called linear di-Ub; linear (head-to-tail) di-Ub
Assay: ITC; 298 K, MicroCal iTC200; linear di-Ub (1 mM) in the syringe, HOIL-1L NZF (100 uM) in the cell (several experiments at half of these); 20 mM HEPES pH 7.0, 50 mM sodium chloride, 1 mM TCEP; one set of sites model; three independent experiments
Details: both partners purified

- Kd: 10.3 µM
B1: mouse HOIL-1L NZF domain (residues Pro192-Gln250) T207D (domain or fragment)
chain: GPLGSPEPVGWQCPGCTFINKPDRPGCEMCCRARPETYQIPASYQPDEEERARLAGEEEALRQYQQ
notes: HOIL-1L, mouse, NZF domain with tail, residues Pro192-Gln250, point mutant T207D; Point mutation made by PCR on the plasmid of m1; also called phosphomimetic HOIL-1L NZF; T207D HOIL-1L NZF; source: E. coli, autoinduction in N-5052 media, purified; not shown: GST, N-terminal, cleaved
